From article PMC2605266

Experiments:
[1] = target: T1, GST fused to the cytosolic domain of VAMP4 (human); test: pull-down; 5 ug GST fusion protein immobilised on glutathione Sepharose, 5 ug His-tagged Munc18c in 500 ul, overnight at 4 C; binding buffer 150 mM potassium acetate, 1 mM MgCl2, 0.05% Tween 20, 20 mM HEPES pH 7.4; bound Munc18c detected by immunoblot
T1 sequence (O75379 whole entry, looked up): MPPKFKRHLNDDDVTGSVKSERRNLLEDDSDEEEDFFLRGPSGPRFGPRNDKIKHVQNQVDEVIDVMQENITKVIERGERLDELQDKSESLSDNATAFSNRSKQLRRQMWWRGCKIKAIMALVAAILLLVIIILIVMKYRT

[2] = target: T2, GST fused to the cytosolic domain of VAMP8 (human); test: as above
T2 sequence (Q9BV40 whole entry, looked up): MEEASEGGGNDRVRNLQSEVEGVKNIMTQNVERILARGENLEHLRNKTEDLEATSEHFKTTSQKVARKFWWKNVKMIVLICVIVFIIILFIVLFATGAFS

B1: Munc18c, N-terminal His6-fusion protein (natural protein)
chain: MAPPVSERGLKSVVWRKIKTAVFDDCRKEGEWKIMLLDEFTTKLLSSCCKMTDLLEEGITVIENIYKNREPVRQMKALYFISPTPKSVDCFLRDFGSKSEKKYKAAYIYFTDFCPDSLFNKIKASCSKSIRRCKEINISFIPQESQVYTLDVPDAFYYCYSPDPSNASRKEVVMEAMAEQIVTVCATLDENPGVRYKSKPLDNASKLAQLVEKKLEDYYKIDEKGLIKGKTQSQLLIIDRGFDPVSTVLHELTFQAMAYDLLPIENDTYKYKTDGKEKEAVLEEDDDLWVRVRHRHIAVVLEEIPKLMKEISSTKKATEGKTSLSALTQLMKKMPHFRKQISKQVVHLNLAEDCMNKFKLNIEKLCKTEQDLALGTDAEGQRVKDSMLVLLPVLLNKNHDNCDKIRAVLLYIFGINGTTEENLDRLIHNVKIEDDSDMIRNWSHLGVPIVPPSQQAKPLRKDRSAEETFQLSRWTPFIKDIMEDAIDNRLDSKEWPYCSRCPAVWNGSGAVSARQKPRTNYLELDRKNGSRLIIFVIGGITYSEMRCAYEVSQAHKSCEVIIGSTHILTPRKLLDDIKMLNKSKDKVSFKDE
binding as percent of that observed for VAMP2 [1]: < 14%
binding as percent of that observed for VAMP2 [2]: < 14%
